This is an account of results in publication PMC10333326.

The assay concerns the target NFAT5 (TonEBP) (UniProt O94916). Put plainly: co-immunoprecipitation, Western blot. The following applies: reference: EZH2 wild type; sites S21. Background: In western blotting, separated proteins are transferred to a membrane and probed.

In the case of EZH2 (from UniProt Q15910) EZH2 S21A, the “binding against the reference” value is recorded as “weaker”.
